Measurements as given in patent US20080311130A1 (IMMUNE DISEASE INSTITUTE, published 2008).
Positions count from the first letter of the chain named. In names and notes the source's numbering stands.

B1: αL I domain clone m7 (F292S), yeast-displayed (receptor)
chain: NVDLVFLFDGSMSLQPDEFQKILDFMKDVMKKLSNTSYQFAAVQFSTSYKTEFDFSDYVKWKDPDALLKHVKHMLLLTNTFGAINYVATEVFREELGARPDATKVLIIITDGEATDSGNIDAAKDIIRYIIGIGKHFQTKESQETLHKFASKPASEFVKILDTSEKLKDLFTELQKKIYVIEGTSKQDLT
notes: yeast surface display; not shown: Aga2, linker and hemagglutinin tag of pCTCON; c-myc tag
B2: αL I domain clone m2 (I258T, T267A, F277A), yeast-displayed (receptor)
chain: B1 chain with I130T, T139A, F149A, S164F
notes: as for B1
B3: αL I domain clone m12 (I150T, G246V, F299L, I309T), yeast-displayed (receptor)
chain: B1 chain with I22T, G118V, S164F, F171L, I181T
notes: as for B1
B4: αL I domain clone f3 (L289P), yeast-displayed (receptor)
chain: B1 chain with L161P, S164F
notes: as for B1
B5: αL I domain clone m8 (F292S, P281E), yeast-displayed (receptor)
chain: B1 chain with P153E
notes: as for B1
B6: αL I domain clone f7 (F292P), yeast-displayed (receptor)
chain: B1 chain with S164P
notes: as for B1
B7: αL I domain clone f5 (F292A), yeast-displayed (receptor)
chain: B1 chain with S164A
notes: as for B1
B8: αL I domain clone m5a (L274I), yeast-displayed (receptor)
chain: B1 chain with L146I, S164F
notes: as for B1
B9: αL I domain clone f2 (L289G), yeast-displayed (receptor)
chain: B1 chain with L161G, S164F
notes: as for B1
B10: αL I domain clone m1 (I258T), yeast-displayed (receptor)
chain: B1 chain with I130T, S164F
notes: as for B1
B11: αL I domain clone m6 (F209Y, L289P), yeast-displayed (receptor)
chain: B1 chain with F81Y, L161P, S164F
notes: as for B1
B12: αL I domain clone f8 (L295A), yeast-displayed (receptor)
chain: B1 chain with S164F, L167A
notes: as for B1
B13: αL I domain clone f9 (L295P), yeast-displayed (receptor)
chain: B1 chain with S164F, L167P
notes: as for B1
B14: αL I domain clone m9 (F292S, Y177R, L204Q), yeast-displayed (receptor)
chain: B1 chain with Y49R, L76Q
notes: as for B1
B15: αL I domain clone f6 (F292G), yeast-displayed (receptor)
chain: B1 chain with S164G
notes: as for B1
B16: αL I domain clone m4 (F134L, K252E, F265S), yeast-displayed (receptor)
chain: B1 chain with F6L, K124E, F137S, S164F
notes: as for B1
B17: αL I domain clone m11 (L295P, Q303R), yeast-displayed (receptor)
chain: B1 chain with S164F, L167P, Q175R
notes: as for B1
B18: αL I domain clone m5 (L274I, S279T), yeast-displayed (receptor)
chain: B1 chain with L146I, S151T, S164F
notes: as for B1
B19: αL I domain clone f4 (L289W), yeast-displayed (receptor)
chain: B1 chain with L161W, S164F
notes: as for B1
B20: αL I domain clone f10 (L295Q), yeast-displayed (receptor)
chain: B1 chain with S164F, L167Q
notes: as for B1
B21: αL I domain clone f11 (L295W), yeast-displayed (receptor)
chain: B1 chain with S164F, L167W
notes: as for B1
B22: αL I domain clone m10 (F265L, E293G, K294E, K296E, V308I), yeast-displayed (receptor)
chain: B1 chain with F137L, S164F, E165G, K166E, K168E, V180I
notes: as for B1
B23: αL I domain clone m3 (G262E), yeast-displayed (receptor)
chain: B1 chain with G134E, S164F
notes: as for B1

target: T1, ICAM-1-Fcγ (ICAM-1 residues of 1-480 fused to the Fc of human IgG, R&D Systems) (human, UniProt P05362 28-480); test: flow cytometry on yeast-displayed I domain, ICAM-1-Fcγ 10 µg/ml
T1 construct: range 1-480; Bought (R&D Systems); also called ICAM-1-Fcγ chimera; not shown: Fc of human IgG
Description: Cells that were cultured only in SD-CAA or further induced in SG-CAA were harvested, washed with 100 μl of labeling buffer (PBS, 0.5% BSA, 10 mM MgCl₂), and then incubated with ligands at 10 μg/ml in 50 μl of the labeling buffer for 20 min with shaking at 30° C. in a 96-well V-bottom plate. Ligands used in this study were anti-c-myc antibody 9E10 (Santa Cruz Biotechnology, CA) and anti-hemagglutinin antibody 12CA5 (Roche Applied Science), αL I domain-specific antibodies TS1/22 and MEM83³², and ICAM-1-Fcγ (ICAM-1 residues of 1-480 fused to the Fc of human IgG, R&D Systems). After incubation with the primary ligands, cells were washed once in 100 μl of the labeling buffer and incubated with the fluorescence-conjugated secondary antibodies at 5 μg/ml in 50 μl of the labeling buffer for 20 min at 4° C. Finally, cells were washed once in 100 μl and suspended in 100 μl of the labeling buffer for flow cytometry (FACScan, BD Biosciences).
A total of twenty-five yeast colonies were picked from SD-CAA plates from the libraries selected with ICAM-1-Fcγ. These clones were tested for binding of ICAM-1-Fcγ, and sequenced (Table 1). Of these, 15 had unique sequences and were designated as m1 to m15, and all bound ICAM-1 better than wild-type (Table 1). Five clones contained single mutations, and the remainder contained 2-5 mutations each (Table 1). From the clones containing multiple mutations, one to three residues were selected and independently tested as a single substitution (designated with a, b, or c suffix) or independently isolated from the ratchet residue library (see below).

T1 sequence (P05362 28-480 limits assumed, form in doubt): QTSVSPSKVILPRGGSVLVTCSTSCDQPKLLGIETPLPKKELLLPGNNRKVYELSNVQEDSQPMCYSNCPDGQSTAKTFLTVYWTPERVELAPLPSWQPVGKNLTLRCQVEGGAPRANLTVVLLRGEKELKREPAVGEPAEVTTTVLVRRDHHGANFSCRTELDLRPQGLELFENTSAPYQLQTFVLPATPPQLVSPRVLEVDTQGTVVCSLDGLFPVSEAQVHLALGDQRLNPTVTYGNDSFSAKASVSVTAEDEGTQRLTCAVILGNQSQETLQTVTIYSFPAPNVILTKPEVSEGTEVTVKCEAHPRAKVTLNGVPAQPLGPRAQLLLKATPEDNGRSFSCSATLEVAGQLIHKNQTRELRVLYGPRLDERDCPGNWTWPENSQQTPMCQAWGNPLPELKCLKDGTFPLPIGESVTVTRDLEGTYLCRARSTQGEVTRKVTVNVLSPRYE

ICAM-1 (% ASFI of HA)	Binder
47 % ASFI of HA	B1
10 % ASFI of HA	B2
27 % ASFI of HA	B3
24 % ASFI of HA	B4
54 % ASFI of HA	B5
5 % ASFI of HA	B6
29 % ASFI of HA	B7
91 % ASFI of HA	B8
74 % ASFI of HA	B9
10 % ASFI of HA	B10
33 % ASFI of HA	B11
25 % ASFI of HA	B12
5 % ASFI of HA	B13
28 % ASFI of HA	B14
91 % ASFI of HA	B15
31 % ASFI of HA	B16
107 % ASFI of HA	B17
51 % ASFI of HA	B18
51 % ASFI of HA	B19
4 % ASFI of HA	B20
81 % ASFI of HA	B21
16 % ASFI of HA	B22
4 % ASFI of HA	B23
